Results from US20250092124A1 (YUNNAN BAIYAO GROUP, published 2025).
Where a chain is given by its changes, count along the chain named.

T1: GDF15-HIS (ACROBiosystems, CAT #: GD5-H5149) (human, UniProt Q99988 197-308)
T1 sequence (looked up): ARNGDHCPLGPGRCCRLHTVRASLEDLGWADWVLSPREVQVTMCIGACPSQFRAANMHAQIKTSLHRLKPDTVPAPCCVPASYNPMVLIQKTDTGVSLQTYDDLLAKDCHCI

T2: cynoGDF15-mFC (monkey (cyno); mouse, UniProt G7PWZ3 197-308)
T2 construct: also called monkey GDF15 (cynoGDF15)
T2 sequence (looked up): T1 sequence (looked up) with H6R, R21H, A54E, T63M, S64N, I112V

T3: GDF15-mFC protein (human; mouse, UniProt Q99988 197-308)
T3 construct: extracellular domain;domain: IgG2a-FC; also called GDF15-mFc fusion protein
T3 sequence (looked up): T1 sequence (looked up)

B1: AV380-hIgG1 (antibody)
heavy: not shown
light: DIQMTQSPASLSASVGETVTITCRTSENLHNYLAWYQQKQGKSPQLLVYDAKTLADGVPSRFSGSGSGTQYSLKINSLQPEDFGSYYCQHFWSSPYTFGGGTKLEIKRTVAAPSVFIFPPSDEQLKSGTASVVCLLNNFYPREAKVQWKVDNALQSGNSQESVTEQDSKDSTYSLSSTLTLSKADYEKHKVYACEVTHQGLSSPVTKSFNRGEC
notes: also called AV380-hlgG1
B2: 53A8(hz) (antibody, human IgG1, kappa, V domains shown)
VH: QVQLQESGPGLVKPSETLSLTCTFSGFSLSTSGMGVGWIRQPPGKGLEWLAHIRWDDVKRYNPALKSRLTISKDTSKSQISLKLSSVTAADTAVYYCAQMAWDWFAYWGQGTTVTVSS
VL: DIQMTQSPSSLSASVGDRVTITCKASQNVDTDVAWYQQKPGQSPKALIYSASYRYSGVPSRFSGSGSGTDFTLTISSLQPEDFATYYCHQYNSYPTFGQGTRLEIKR
notes: also called humanized antibody 53A8

Columns and labels:
[1] = molecular target: T1, GDF15-HIS (ACROBiosystems, CAT #: …); assay: cell-based or functional assay
[2] = molecular target: T1, GDF15-HIS (ACROBiosystems, CAT #: …); assay: ELISA, GDF15-HIS coated
Protocol: The experiment was performed as detailed in Example 2, except that the coating protein was GDF15-HIS (ACROBiosystems, CAT #: GD5-H5149), and the antibodies to be tested (the humanized antibodies), negative control antibody (hIgG1), positive control antibodies Ponsegromab (Pfizer; Drug Bank: D11909) and AV380-hlgG1 (the heavy chain and light chain constant regions of AV380-mIgG1 were replaced with the constant regions of human IgG, i.e., SEQ ID NO. 5 and SEQ ID NO. 6) were added to each well of the coated plate.

cynoGDF15-mFC = molecular target: T2, cynoGDF15-mFC; assay: ELISA, cynoGDF15-mFC coated
Protocol: The experiment was performed as detailed in Example 2, except that the coating protein was cynoGDF15-mFC (GDF15: Genbank accession number EHH29815.1; mFC: Genbank accession number AAH31470.1), and the antibodies to be tested (the humanized antibodies), negative control antibody (hIgG1), and positive control antibodies Ponsegromab and AV380-hIgG1 were added to each well of the coated plate.

[3] = molecular target: T1, GDF15-HIS (ACROBiosystems, CAT #: …); assay: BLI (ForteBio Octet), antibody immobilised, GDF15 200-6.25 nM
GDF15-mFC protein [4] = molecular target: T3, GDF15-mFC protein; assay: blocking ELISA as in Example 4, GFRAL-hIgG1 Fc coated (competitor), GDF15-mFC mixed with antibody
Protocol: A fusion protein comprising the extracellular region of GFRAL protein (Genbank accession number NM_207410.2) and human IgG1-FC (Genbank accession number CAC20454.1) was diluted to […] with coating solution, followed by adding to ELISA plate at 50 μl/well and incubating at 4° C. overnight. The solution in the wells was discarded and the plate was washed 3 times with washing solution, each time for 3-5 minutes, and dried via tapping. 200 μl of blocking solution was added to each well followed by incubating at 4° C. overnight. The plate was washed 3 times with washing solution, and the coated plate may be stored at −20° C. or 4° C. for future use.
The antibodies to be tested, positive control antibody AV380-mIgG1 and blank control (PBS) were added to the wells. […] At the same time, GDF15-mFC protein (GDF15: Genbank accession number NM_004864.3; mFC: Genbank accession number AAH31470.1) was added at 20 ng/well and mixed with the antibodies to be tested. The wells were incubated at 37° C. for 1 hour, washed, and dried via tapping. Then the enzyme-labeled secondary antibody, horseradish peroxidase-labeled goat anti-mouse IgG (SIGMA, catalog number A9044-2 ml) was added to each well, at a dilution of 1:10000, 50-100 μl/well. The wells were incubated at 37° C. for 2 hours, washed, and dried via tapping. 100 μl of freshly prepared developing solution TMB was added to each well and incubated at 37° C. for 30 minutes. 2 mol/L H₂SO₄ was added to terminate the reaction, and the OD value was obtained on an enzyme-linked immunosorbent reader.
The experiment was performed as detailed in Example 4, except that the antibodies to be tested (the humanized antibodies), negative control antibody (hIgG1), and positive control antibodies Ponsegromab and AV380-hIgG1 were added to each well of the coated plate.

GDF15-mFC protein [5] = molecular target: T3, GDF15-mFC protein; assay: competitive ELISA, GFRAL-HIS coated (competitor), GDF15-mFc 0.3 µg/ml pre-incubated with antibody
Protocol: GFRAL-HIS protein (ACROBiosystems, GFA-H52H3) was dissolved in PBS at a concentration of […] and was used to coat ELISA 96-well plate one day before blocking the plate with 2% BSA in PBS. 53E5 (hz), and control antibodies Ponsegromab and AV380-hIgG1 were 3.16-fold diluted for 10 gradients with a starting concentration of 20 μg/ml. At the same time, GDF15-mFc protein was added at a final concentration of 0.3 μg/ml. After incubation at room temperature for 1 hour, the mixtures were added to 96-well plate coated with GFRAL-HIS. After incubated at room temperature for 1 hour, the plate was washed and then HRP-anti-mouse IgG was added to the plate. After incubation at room temperature for 1 hour, the HRP enzyme activity (OD450) was detected. The HRP enzyme activity represents the relative amount of GDF15-mFc protein bound to GFRAL. The OD450 values and antibody concentrations were plotted. The dose-effect curve was fitted using the log (agonist) vs. response-variable slope (four-parameter) Logistic model to calculate IC50.

[6] = molecular target: T1, GDF15-HIS (ACROBiosystems, CAT #: …); assay: ELISA on human GDF15, antibody after 2 weeks at 37 °C in PBS
Protocol: (§1) […] of the antibodies to be tested (final concentration 1 mg/ml) were added to 200 μl of plasma and PBS, respectively, tightly sealed and placed at 37° C. for 2 weeks. The change of protein binding activity was detected by ELISA.

[7] = molecular target: T1, GDF15-HIS (ACROBiosystems, CAT #: …); assay: ELISA on human GDF15, antibody after 2 weeks at 37 °C in plasma
Protocol: as §1

[8] = molecular target: T1, GDF15-HIS (ACROBiosystems, CAT #: …); assay: ELISA in stability test, antibody before treatment; coated antigen not named
[9] = molecular target: T1, GDF15-HIS (ACROBiosystems, CAT #: …); assay: ELISA in stability test, antibody after 40 °C for 1 week; coated antigen not named
Protocol: (§2) An appropriate amount of each antibody was taken and adjusted to 10 mg/mL, and was placed at 40° C. for 1 and 2 weeks. Protein aggregation was detected using SEC-HPLC, and protein binding activity change was detected by ELISA.

[10] = molecular target: T1, GDF15-HIS (ACROBiosystems, CAT #: …); assay: ELISA in stability test, antibody after pH 3.6 for 2-4 h; coated antigen not named
Protocol: An appropriate amount of each antibody was taken and adjusted to 5 mg/mL in storage buffer adjusted to pH 3.6 using an ultrafiltration tube. The antibodies were placed at room temperature for 2-4 hours, then protein aggregation was detected using SEC-HPLC, and protein binding activity change was detected by ELISA.

[11] = molecular target: T1, GDF15-HIS (ACROBiosystems, CAT #: …); assay: ELISA in stability test, antibody after 40 °C for 2 weeks; coated antigen not named
Protocol: as §2

[12] = molecular target: T1, GDF15-HIS (ACROBiosystems, CAT #: …); assay: ELISA in stability test, antibody after 5 freeze-thaw cycles; coated antigen not named
Protocol: An appropriate amount of each antibody was taken and adjusted to 10 mg/mL, followed by freezing at −80° C. for 10 min, and placing in an ice-water mixture to slowly thaw. The above procedure was repeated 5 times. Protein aggregation was detected using SEC-HPLC, and protein binding activity change was detected by ELISA.

| Bottom (luciferase activity fold, fitted curve), HEK293 SRE-LUC2-cRET-GFRAL reporter cells [1] | IC50, luciferase in HEK293 SRE-LUC2-cRET-GFRAL reporter cells stimulated with GDF15-His 5 ng/ml [1] [µg/mL] | EC50 [2] [µg/mL] | OD450.Max [2] [OD450] | EC50 (cynoGDF15-mFC) [µg/mL] | OD450.Max (cynoGDF15-mFC) [OD450] | Kd [3] [nM] | koff [3] [s⁻¹] | kon [3] [M⁻¹ s⁻¹] | IC50 (GDF15-mFC protein [4]) [µg/mL] | IC50 (GDF15-mFC protein [5]) [µg/mL] | EC50 [6] [µg/mL] | EC50 [7] [µg/mL] | EC50 [8] [µg/mL] | EC50 [9] [µg/mL] | EC50 [10] [µg/mL] | EC50 [11] [µg/mL] | EC50 [12] [µg/mL] | OD450.Max (GDF15-mFC protein [4]) [OD450] | Binder |
| --- | --- | --- | --- | --- | --- | --- | --- | --- | --- | --- | --- | --- | --- | --- | --- | --- | --- | --- | --- |
| 1.03 | 0.0447 | 0.0823 | 1.07 | 0.0741 | 1 | 0.0845 | 6.91e-05 | 817000 | 0.231 | 0.231 |  |  |  |  |  |  |  |  | B1 |
|  |  | 0.0827 | 1.05 | 0.0775 | 1.03 | 0.266 | 0.000257 | 967000 | 0.283 |  | 0.113 | 0.0413 | 0.0412 | 0.0643 | 0.0691 | 0.0296 | 0.0673 | 1.1 | B2 |
